Measurements reported in patent publication US6753317.
Non-standard residues stand in square brackets, D forms with d. *: point of attachment. des‑NH2‑α‑pyrrolidine‑1‑yl = Dmt (2',6'-dimethyl-L-tyrosine) with the α-amine replaced by pyrrolidine-1-yl, Cc1cc(O)cc(C)c1C[C@@H](C(=O)*)N1CCCC1; des‑NH2‑α‑pyrrole‑1‑yl = replacement of the α-amino group by a pyrrol-1-yl group; NH(1-Adamantyl) = C1C2CC3CC1CC(N*)(C2)C3; Dmt = Cc1cc(O)cc(C)c1C[C@H](N)C(=O)O; NH‑tetrazole‑5‑yl = n1nc(N*)n[nH]1; Tic = O=C(O)[C@@H]1Cc2ccccc2CN1; dTic = O=C(O)[C@H]1Cc2ccccc2CN1; NHtBu = CC(C)(C)N*

The binders below were run against δ-opioid receptor of the mouse vas deferens (MVD) (mouse), P32300 (assay: cell-based or functional assay).
Chain of δ-opioid receptor of the mouse vas deferens (MVD) (mouse), P32300 (P32300 whole entry, stated change not applied): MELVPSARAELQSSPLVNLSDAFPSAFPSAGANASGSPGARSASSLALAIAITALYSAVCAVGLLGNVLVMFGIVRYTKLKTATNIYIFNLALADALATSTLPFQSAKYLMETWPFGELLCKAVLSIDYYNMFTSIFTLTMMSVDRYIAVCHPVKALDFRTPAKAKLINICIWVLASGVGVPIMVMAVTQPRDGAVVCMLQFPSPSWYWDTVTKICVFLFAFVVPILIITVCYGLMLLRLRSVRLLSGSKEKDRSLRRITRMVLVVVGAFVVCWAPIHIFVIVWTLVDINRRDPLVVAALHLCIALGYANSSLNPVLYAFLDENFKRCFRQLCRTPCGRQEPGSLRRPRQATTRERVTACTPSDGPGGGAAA

Binder	MVD ED50 [nM]	MVD Ke [nM]	MVD pA2
H-[Dmt]-[Tic]-Ala-NHMe (SMILES CNC(=O)[C@H](C)NC(=O)[C@@H]1Cc2ccccc2CN1C(=O)[C@@H](N)Cc1c(C)cc(O)cc1C) [H-Dmt-Tic-Ala-NHMe]	1290		
H-[Dmt]-[Tic]-{NH(1-Adamantyl)} (SMILES Cc1cc(O)cc(C)c1C[C@H](N)C(=O)N1Cc2ccccc2C[C@H]1C(=O)NC12CC3CC(CC(C3)C1)C2) [H-Dmt-Tic-NH-1-adamantane]	870	> 10000	
H-[Dmt]-[Tic]-Ala-NHtBu (SMILES Cc1cc(O)cc(C)c1C[C@H](N)C(=O)N1Cc2ccccc2C[C@H]1C(=O)N[C@@H](C)C(=O)NC(C)(C)C) [H-Dmt-Tic-Ala-NH-tBu]		0.69	9.16
H-[Dmt]-[dTic]-{NH(1-Adamantyl)} [H-Dmt-D-Tic-NH-1-adamantane]		> 10000	
{des‑NH2‑α‑pyrrolidine‑1‑yl}-[Dmt]-[Tic]-OH [[des-NH2-α-pyrrolidine-1-yl]-Dmt-Tic-OH]		121	6.9
{des‑NH2‑α‑pyrrole‑1‑yl}-[Dmt]-[Tic]-OH [[des-NH2-α-pyrrole-1-yl]-Dmt-Tic-OH]		408	6.39
{N,N‑dimethyl}-[Dmt]-[dTic]-{NH(1-Adamantyl)} [N,N(Me)2-Dmt-D-Tic-NH-1-adamantane]		128	6.91
{N,N‑dimethyl}-[Dmt]-[Tic]-OH (also: tritium-labelled form used as radioligand) [N,N(Me)2-Dmt-Tic-OH]		0.28	9.4
H-[Dmt]-[Tic]-NHMe [H-Dmt-Tic-NHMe]	21200	> 10000	
H-[Dmt]-[Tic]-Ala-OH [H-Dmt-Tic-Ala-OH]		4	8.4
H-[Dmt]-[Tic]-Ala-NH2 [H-Dmt-Tic-Ala-NH2]		9	8
H-[Dmt]-[Tic]-Ala-{NH(1-Adamantyl)} [H-Dmt-Tic-Ala-NH-1-adamantane]		0.51	9.29
H-[Dmt]-[Tic]-{NH‑tetrazole‑5‑yl} [H-Dmt-Tic-NH-tetrazole-5-yl]		36.3	7.44
{N,N‑dimethyl}-[Dmt]-[Tic]-NHMe [N,N(Me)2-Dmt-Tic-NHMe]		0.41	9.39
H-[Dmt]-[Tic]-NH2 [H-Dmt-Tic-NH2]		42	7.2
{N,N‑dimethyl}-[Dmt]-[Tic]-{NH(1-Adamantyl)} [N,N(Me)2-Dmt-Tic-NH-1-adamantane]		0.87	9.06
